This note sets out measurements from patent US6465220.

The target in one data set is T1, PSGL-1b peptide.
T1 chain: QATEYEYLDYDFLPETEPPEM

Another data set concerns the target T2, PSGL-1a peptide.
T2 chain: QATEYEYLDYDFLPEC

B1: soluble recombinant human GalNAc-T1 (pAcGP67-GalNAc-T1-sol) (protein)
chain: GLPAGDVLEPVQKPHEGPGEMGKPVVIPKEDQEKMKEMFKINQFNLMASEMIALNRSLPDVRLEGCKTKVYPDNLPTTSVVIVFHNEAWSTLLRTVHSVINRSPRHMIEEIVLVDDASERDFLKRPLESYVKKLKVPVHVIRMEQRSGLIRARLKGAAVSKGQVITFLDAHCECTVGWLEPLLARIKHDRRTVVCPIIDVISDDTFEYMAGSDMTYGGFNWKLNFRWYPVPQREMDRRKGDRTLPVRTPTMAGGLFSIDRDYFQEIGTYDAGMDIWGGENLEISFRIWQCGGTLEIVTCSHVGHVFRKATPYTFPGGTGQIINKNNRRLAEVWMDEFKNFFYIISPGVTKVDYGDISSRVGLRHKLQCKPFSWYLENIYPDSQIPRHYFSLGEIRNVETNQCLDNMARKENEKVGIFNCHGMGGNQVFSYTANKEIRTDDLCLDVSKLNGPVTMLKCHHLKGNQLWEYDPVKLTLQHVNSNQCLDKATEEDSQVPSIRDCNGSRSQQWLLRNVTLPEIF
Consider B1, for which the Km for acceptor substrate with EA2 peptide was 0.07 mM; with PSGL-1b peptide, above 2 mM; in the data set with Muc7 peptide, 0.04 mM. The Vmax with EA2 peptide came to 0.99 nmol/min/µg; with Muc7 peptide, 0.76 nmol/min/µg. Moreover, the GalNAc-transferase activity entry in the data set with PSGL-1b peptide and with PSGL-1a peptide was “exhibited poor activities with both peptide designs” in each case.

B2: soluble recombinant human GalNAc-T3 (pAcGP67-GalNAc-T3-sol) (protein)
chain: MERNMKNKNKMLDLMLEAVNNIKDAMPKMQIGAPVRQNIDAGERPCLQGYYTAAELKPVLDRPPQDSNAPGASGKAFKTTNLSVEEQKEKERGEAKHCFNAFASDRISLHRDLGPDTRPPECIEQKFKRCPPLPTTSVIIVFHNEAWSTLLRTVHSVLYSSPAILLKEIILVDDASVDEYLHDKLDEYVKQFSIVKIVRQRERKGLITARLLGATVATAETLTFLDAHCECFYGWLEPLLARIAENYTAVVSPDIASIDLNTFEFNKPSPYGSNHNRGNFDWSLSFGWESLPDHEKQRRKDETYPIKTPTFAGGLFSISKEYFEYIGSYDEEMEIWGGENIEMSFRVWQCGGQLEIMPCSVVGHVFRSKSPHSFPKGTQVIARNQVRLAEVWMDEYKEIFYRRNTDAAKIVKQKAFGDLSKRFEIKHRLQCKNFTWYLNNIYPEVYVPDLNPVISGYIKSVGQPLCLDVGENNQGGKPLIMYTCHGLGGNQYFEYSAQHEIRHNIQKELCLHAAQGLVQLKACTYKGHKTVVTGEQIWEIQKDQLLYNPFLKMCLSANGEHPSLVSCNPSDPLQKWILSQND
For B2, the GalNAc-transferase activity result with PSGL-1b peptide and in the data set with PSGL-1a peptide was “exhibited poor activities with both peptide designs” in each case.
